Measurements taken from publication PMC5298935 (2016).
Square brackets hold non-standard residues; d marks the D form. Ends that are not written are not given here. pS = N[C@@H](COP(=O)(O)O)C(=O)O

T1: IRAK1 p163 peptide 157-180 (Homo sapiens, UniProt P51617, phospho-Ser163)
T1 chain: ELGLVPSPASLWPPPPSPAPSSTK

T2: IRAK1 p144 peptide 140-149 (Homo sapiens, UniProt P51617)
T2 chain: STFL[pS]PAFPG

T3: IRAK1 p131 peptide 126-135 (Homo sapiens, UniProt P51617)
T3 chain: EAEAW[pS]PRKL

T4: IRAK1 p163 peptide 157-180 (Homo sapiens, UniProt P51617)
T4 chain: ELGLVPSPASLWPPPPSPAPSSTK


What was measured:
Assay in all cases: NMR titration
[1] = molecular target: T1, IRAK1 p163 peptide 157-180
[2] = molecular target: T2, IRAK1 p144 peptide 140-149
[3] = molecular target: T3, IRAK1 p131 peptide 126-135
[4] = molecular target: T4, IRAK1 p163 peptide 157-180

Kd [1] [µM]	Kd [2] [µM]	Kd [3] [µM]	Kd [4] [µM]	Binder
230	689	161	–	Pin1 PPIase domain 46-163 (protein) KNGQGEPARVRCSHLLVKHSQSRRPSSWRQEKITRTKEEALELINGYIQKIKSGEEDFESLASQFSDCSSAKARGDLGAFSRGQMQKPFEDASFALRTGEMSGPVFTDSGIHIILRTE
–	–	–	385	MADEEKLPPGWEKRMSRSSGRVYYFNHITNASQWERPSGNSSSGGKNGQG (not fully specified; phospho-Ser163) [Pin1 WW domain 1-50]
